In patent US20250002581A1 (VERSITECH, published 2025):

B1: CH101-huIgG1(N297A) (antibody)
heavy: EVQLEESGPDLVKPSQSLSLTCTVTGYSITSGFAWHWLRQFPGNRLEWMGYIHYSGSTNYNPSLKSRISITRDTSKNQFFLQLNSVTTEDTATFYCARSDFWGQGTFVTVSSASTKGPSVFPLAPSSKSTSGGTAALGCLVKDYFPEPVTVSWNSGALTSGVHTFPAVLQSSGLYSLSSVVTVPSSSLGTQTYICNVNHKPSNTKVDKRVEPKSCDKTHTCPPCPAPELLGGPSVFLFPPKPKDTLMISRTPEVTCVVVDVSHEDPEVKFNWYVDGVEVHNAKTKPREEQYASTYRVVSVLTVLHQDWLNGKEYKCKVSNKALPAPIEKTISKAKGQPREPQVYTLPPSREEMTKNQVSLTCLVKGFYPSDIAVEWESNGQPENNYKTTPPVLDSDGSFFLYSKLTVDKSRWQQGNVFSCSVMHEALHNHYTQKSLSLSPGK
light: DVVMTQTPLNLSVTFGQPVSISCTSSQSLLDRDGETFMNWLFQRPGQSPKRLIYLVSKLDFGVPDRFTGSGSGTDFTLKISRVEAEDLGIYYCWQGTHFPLTFGGGTKLEIKRTVAAPSVFIFPPSDEQLKSGTASVVCLLNNFYPREAKVQWKVDNALQSGNSQESVTEQDSKDSTYSLSSTLTLSKADYEKHKVYACEVTHQGLSSPVTKSFNRGEC
notes: Detected with a second anti-human Fc antibody
B2: CH101-huIgG1 (antibody)
heavy: not shown
light: B1 light
notes: also called chimeric CH101; CH101-IgG1
B3: murine CH101 (antibody, V domains shown)
VH: EVQLEESGPDLVKPSQSLSLTCTVTGYSITSGFAWHWLRQFPGNRLEWMGYIHYSGSTNYNPSLKSRISITRDTSKNQFFLQLNSVTTEDTATFYCARSDFWGQGTFVTVSS
VL: DVVMTQTPLNLSVTFGQPVSISCTSSQSLLDRDGETFMNWLFQRPGQSPKRLIYLVSKLDFGVPDRFTGSGSGTDFTLKISRVEAEDLGIYYCWQGTHFPLTFGGGTKLEIK
notes: Hybridoma-derived, fully murine monoclonal antibody; a mouse IgG1 control was used beside it in vivo; also called parental murine CH101; original CH101 (parental, fully murine)
B4: CH101-huIgG1(L/S) (antibody)
heavy: B3 VH
light: B1 light
notes: Detected with a second anti-human Fc antibody; not shown: human IgG1 constant region with a modification printed only as '(L/S)'
B5: CH101-huIgG4 (antibody)
heavy: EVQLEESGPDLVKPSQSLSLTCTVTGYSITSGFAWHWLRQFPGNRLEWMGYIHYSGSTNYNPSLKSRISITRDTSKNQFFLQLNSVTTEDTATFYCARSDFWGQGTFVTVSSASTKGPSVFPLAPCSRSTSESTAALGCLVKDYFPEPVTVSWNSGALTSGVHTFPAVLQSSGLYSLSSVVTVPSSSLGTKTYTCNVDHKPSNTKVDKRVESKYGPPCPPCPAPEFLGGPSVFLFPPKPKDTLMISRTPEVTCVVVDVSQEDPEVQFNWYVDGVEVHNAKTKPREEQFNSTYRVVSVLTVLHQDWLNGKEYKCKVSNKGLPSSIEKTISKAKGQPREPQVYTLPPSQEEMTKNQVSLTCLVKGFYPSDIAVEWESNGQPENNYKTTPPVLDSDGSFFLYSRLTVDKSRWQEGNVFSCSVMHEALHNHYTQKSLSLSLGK
light: B1 light
notes: Chimeric CH101 on human IgG4; Detected with a second anti-human Fc antibody; also called CH101-IgG4
B6: hufrCH101-IgG1 (antibody)
heavy: not shown
light: DVVMTQSPLSLPVTLGQPASISCTSSQSLLDRDGETFMNWFQQRPGQSPRRLIYLVSKLDFGVPDRFSGSGSGTDFTLKISRVEAEDVGVYYCWQGTHFPLTFGGGTKVEIKRTVAAPSVFIFPPSDEQLKSGTASVVCLLNNFYPREAKVQWKVDNALQSGNSQESVTEQDSKDSTYSLSSTLTLSKADYEKHKVYACEVTHQGLSSPVTKSFNRGEC
notes: 97.0% humanized CH101 (641/661) by CDR grafting, human IgG1; also called huCH101-IgG1; huCH101
B7: anti-Δ42PD1 antibody CH34 (antibody, mouse IgG2b, kappa, V domains shown)
VH: EVKLVESGGGLVQPGGSRKLSCAASGFTFSDYGMAWVRQAPGKGPEWVAFISSLAYTIYYADTVTGRFTISRENAKNTLYLEMSSLRSEDTAMYYCARGGAGFAYWGQGTLVTVSA
VL: DIQMTQSSSYLSVSLGGRVTITCKASDHINNWLAWYQQKPGNAPRLLISGATSLETGVPSRFSGSGSGKDYTLSITSLQTEDVATYYCQQYWSTPWTFGGGTKLEIKR
notes: Murine monoclonal antibody (msIgG2b isotype control used beside it); both are entered as this one molecule; also called murine CH34; mouse CH34 mAb

What was measured:
Δ42PD1 [1] = molecular target: T1, Δ42PD1 (human); assay: flow cytometry on 293T-Δ42PD1 cells, antibody 10 ng/ml, second anti-human Fc antibody
T1 construct: whole, on cells
Description: Human IgG1 isotype was used as a negative control.
To exploit the therapeutic activities of CH101 variants, we made various modifications in the constant regions of the chimeric version or humanized version of CH101, thus resulting a serial of CH101 humanized antibodies, including CH101-huIgG1(N297A), CH101-huIgG1(L/S), CH101-huIgG4, huCH101-IgG1, huCH101-IgG4, CH101-huIgG1 (chimeric CH101). The original CH101 (parental, fully murine) was included as the positive control for these humanized versions. […] All humanized antibodies could recognize Δ42PD1 expressed on the cell surface but with different specificity (FIGS. 3A-3I). The detailed statistical analysis elucidated the activity of versions of humanized antibodies in interacting with Δ42PD1 at different specificity and sensitivity (Table 1). […] Due to the limited expression of chimeric versions of CH101 with Fc engineering, including CH101-huIgG1(N297A), CH101-huIgG1(L/S) and CH101-huIgG4, the amount of these antibody was insufficient for fluorescence labelling.

Δ42PD1 [2] = molecular target: T1, Δ42PD1; assay: flow cytometry on 293T-Δ42PD1 cells, antibody 10 ng/ml; average ± deviation
PD-1-GFP = molecular target: T2, PD-1-GFP (UniProt Q15116 25-288); assay: flow cytometry on RPMI8866 B cells transfected with PD-1-GFP
T2 construct: whole, on cells; Expressed from a PCDH plasmid in RPMI8866 B cells by electroporation; also called PD-1 expressed on human B cells; not shown: GFP
Description: To test the specificity of anti-Δ42PD1 antibody CH34 as compared with the anti-PD1 antibody (EH12.2H7), RPMI8866 B cells are transfected with a plasmid PCDH expressing Δ42PD-1-GFP, PD-1-GFP or GFP along by Neon electroporation system. Untransfected RPMI8866 B cells are included as controls. Two days after the transfection, the transfection efficiency is determined by flow cytometry analysis on GFP (upper panel). The specificity of anti-Δ42PD1 antibody CH34 and anti-PD1 antibody EH12.2H7 is measured by analysis on PD-1 and Δ42PD1 expression (lower panel).

PD1 = molecular target: T3, PD1 (human, UniProt Q15116 25-288); assay: flow cytometry on 293T cells transfected with a PCDH plasmid expressing PD-1
T3 construct: whole, on cells; also called CD279
Description: Untransfected cells are included as controls. Two days after the transfection, the specificity of anti-Δ42PD1 antibody CH34 and anti-PD1 antibody EH12.2H7 is measured by analysis on PD-1 and Δ42PD1 expression.

T3 sequence (Q15116 25-288): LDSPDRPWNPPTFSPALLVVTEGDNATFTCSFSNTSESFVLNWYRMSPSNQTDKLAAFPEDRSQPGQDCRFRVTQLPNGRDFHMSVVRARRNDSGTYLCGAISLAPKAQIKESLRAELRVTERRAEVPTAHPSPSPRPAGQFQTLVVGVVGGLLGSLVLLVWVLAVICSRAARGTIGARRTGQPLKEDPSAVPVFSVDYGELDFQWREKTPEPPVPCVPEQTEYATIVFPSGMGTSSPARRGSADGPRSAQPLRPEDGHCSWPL
T2 sequence (Q15116 25-288): as above

| Binder | 293T-Δ42PD1 (%) (Δ42PD1 [1]) | 293T-Δ42PD1 (%) (Δ42PD1 [2]) | also measured |
| --- | --- | --- | --- |
| B1 | 68.3 |  |  |
| B2 |  | 70.1 |  |
| B3 |  | 59.2 |  |
| B4 | 65.7 |  |  |
| B5 | 62.8 |  |  |
| B6 |  | 45.5 |  |
| B7 |  |  | binding result (PD-1-GFP): no binding; binding result (PD1): no binding |
